In patent US20090062189A1, “TUMOR SUPPRESSOR PROTEIN AND NUCLEOTIDE ENCODING SAME” (priority 2006, published 2009):

How the values were obtained:
[1] = test system: Hep-G2 cells; test: Trypan blue dye exclusion cell viability assay; type: cell-based, human; settings: for viability of the cells: mean ± S.E.
[2] = test system: 22Rv1 cells; test: Trypan blue dye exclusion cell viability assay; type: cell-based, human; settings: for viability of the cells: mean ± S.E.
[3] = test system: DU 145 cells; test: Trypan blue dye exclusion cell viability assay; type: cell-based, human; settings: for viability of the cells: DU 145, mean ± S.E.
[4] = test system: MCF-7 cells; test: Trypan blue dye exclusion cell viability assay; type: cell-based, human; settings: for viability of the cells: mean ± S.E.
[5] = test system: Hep-G2 cells; test: MTS cell proliferation assay
Protocol: (§1) To determine whether or not alterations in PDZD2 and sPDZD2 levels in inhibitor-treated cells are associated with any changes in the cell growth rate, we also monitored DU145, PC-3, 22Rv1, MCF-7 and Hep-G2 cell proliferation by MTS-based assays. Cell proliferation was measured by a tetrazolium-based Cell Titer 96® AQucous assay kit (Promega). Absorbance at 490 nm was recorded 3 hours after MTS addition.
(§2) Cell proliferation was measured by a tetrazolium-based Cell Titer 96® AQucous assay kit (Promega). Absorbance at 490 nm was recorded 3 hours after MTS addition. […] The number of viable cells was counted using hemocytometers. Any apoptotic effect on cancer cells induced by sPDZD2 was measured by the Cell Death Detection ELISA^PLUS assay kit (Roche), which detects the presence of mono- and oligonucleosomes in the cytoplasm of the cells after lysis. Briefly, the cancer cells (1×10^5/ml) were seeded in 24-well plates and treated with 10^−8 M and 10^−7 M sPDZD2 for 24 hours. After treatment, cells were harvested and any apoptosis was detected according to manufacturer's instructions.

[6] = test system: PC-3 cells; test: Trypan blue dye exclusion cell viability assay; type: cell-based, human; settings: for viability of the cells: mean ± S.E.
[7] = test system: PC-3 cells; test: MTS cell proliferation assay
Protocol: as §1, §2

[8] = test system: 22Rv1 cells; test: MTS cell proliferation assay
Protocol: as §1, §2

[9] = test system: DU145 prostate cancer xenograft tumors; test: DU145 prostate cancer xenograft tumor volume in nude mice; type: in vivo, male BALB/c athymic nude mice
Protocol: Data are shown as mean±S.E. Two group comparisons were analyzed by unpaired Student's t test. The level of significance for all statistical analyses was set at P<0.05. * P<0.05 compared to saline-treated control.
For in vivo studies, DU145 cancer cells (5×10^6) in 0.2 ml FBS-containing-EMEM medium were injected subcutaneously into the right flank of each male BALB/c athymic nude mice (weight, 20±2 g). After cancer cell injection, the mice were randomly divided into 3 groups, namely the control, low-dose treatment, and high-dose treatment groups. Ten days after tumor cell implantation, each mouse of the low-dose treatment group and high-dose treatment group was injected, respectively, once daily by the intraperitoneal route with 0.084 mg (in 0.1 ml saline) and 8.4 mg (in 0.1 ml saline) recombinant sPDZD2 for 58 days. The width and length of the tumor in millimeters were measured weekly by a caliper, when the implanted tumor became measurable. The tumor volume was calculated according to the following formula: Volume=d^2×D/2 mm^3, where d is the shorter width and D was the longer length.

[10] = test system: LNCaP cells; test: Cell Death Detection ELISA PLUS apoptosis assay; type: cell-based, human
Protocol: Data are shown as mean±S.E. Two group comparisons were analyzed by unpaired Student's t test. The level of significance for all statistical analyses was set at P<0.05. *** P<0.001 compared to control.

[11] = test system: LNCaP cells; test: Trypan blue dye exclusion cell viability assay; type: cell-based, human
Protocol: The effects of sPDZD2 on cell viability were monitored by trypan blue dye exclusion assays. Data are shown as mean±S.E. Two group comparisons were analyzed by unpaired Student's t test. The level of significance for all statistical analyses was set at P<0.05. P<0.001 compared to control.

[12] = test system: DU145 cells; test: MTS cell proliferation assay
Protocol: as §1, §2

[13] = test system: MCF-7 cells; test: MTS cell proliferation assay
Protocol: as §1, §2

[14] = 10^−9 M, 10^−8 M, 10^−7 M sPDZD2, 24 and 48 hours, P<0.001
[15] = co-incubation 10^−8 M sPDZD2 with 10 μM Z-DEVD-FMK, 48 hours

B1: sPDZD2: secreted 37 kDa cleavage product of human PDZD2, tumor suppressor protein of SEQ ID NO: 2; recombinant form carries N-terminal AGH (protein)
chain: LDKLCSEDYSAGPSAVLFKTELEITPRRSPGPPAGGVSCPEKGGNRACPGGSGPKTSAAETPSSASDTGEAAQDLPFRRSWSVNLDQLLVSAGDQQRLQSVLSSVGSKSTILTLIQEAKAQSENEEDVCFIVLNRKEGSGLGFSVAGGTDVEPKSITVHRVFSQGAASQEGTMNRGDFLLSVNGASLAGLAHGNVLKVLHQAQLHKDALVVIKKGMDQPRPSARQEPPTANGKGLLSRKTIPLEPGIGRSVAVHDALCVEVLKTSAGLGLSLDGGKSSVTGDGPLVIKRVYKGGAAEQAGIIEAGDEILAINGKPLVGLMHFDAWNIMKSVPEGPVQLLIRKHRNSS
viability of the cells ([1]; 10^−7M sPDZD2, 24 hrs.): 93.37 ± 0.54% | viability of the cells ([1]; 10^−7M sPDZD2, 48 hrs.): 93.58 ± 0.64% | viability of the cells ([1]; 10^−8M sPDZD2, 24 hrs.): 93.38 ± 0.54% | viability of the cells ([1]; 10^−8M sPDZD2, 48 hrs.): 93.64 ± 0.66% | changes in cell viability (in words) ([1]; sPDZD2, 24 and 48 hours): No changes | viability of the cells ([2]; 10^−7M sPDZD2, 24 hrs.): 96.04 ± 0.50% | viability of the cells ([2]; 10^−7M sPDZD2, 48 hrs.): 92.65 ± 0.48% | viability of the cells ([2]; 10^−8M sPDZD2, 24 hrs.): 96.01 ± 0.38% | viability of the cells ([2]; 10^−8M sPDZD2, 48 hrs.): 93.02 ± 0.47% | changes in cell viability (in words) ([2]; sPDZD2, 24 and 48 hours): No changes | viability of the cells ([3]; 10^−7M sPDZD2, 24 hrs.): 93.78 ± 1.06% | viability of the cells ([3]; 10^−7M sPDZD2, 48 hrs.): 95.25 ± 0.88% | viability of the cells ([3]; 10^−8M sPDZD2, 24 hrs.): 94.66 ± 0.69% | viability of the cells ([3]; 10^−8M sPDZD2, 48 hrs.): 95.09 ± 1.02% | changes in cell viability (in words) ([3]; DU145, sPDZD2, 24 and 48 hours): No changes | viability of the cells ([4]; 10^−7M sPDZD2, 24 hrs.): 97.34 ± 0.42% | viability of the cells ([4]; 10^−7M sPDZD2, 48 hrs.): 92.07 ± 0.89% | viability of the cells ([4]; 10^−8M sPDZD2, 24 hrs.): 96.69 ± 0.50% | viability of the cells ([4]; 10^−8M sPDZD2, 48 hrs.): 93.86 ± 0.76% | changes in cell viability (in words) ([4]; sPDZD2, 24 and 48 hours): No changes | decrease in cell proliferation ([5]; 10^−7 M sPDZD2, 24 hours): 23.1% | decrease in cell proliferation ([5]; 10^−7 M sPDZD2, 48 hours): 22.2% | decrease in cell proliferation ([5]; 10^−8 M sPDZD2, 24 hours): 21% | decrease in cell proliferation ([5]; 10^−8 M sPDZD2, 48 hours): 17% | effect on cell proliferation (in words) [5, 14]: concentration-dependent inhibition | effect on the increase in cell proliferation induced by caspase-3 inhibitor treatment [5, 15]: abolished | viability of the cells ([6]; 10^−7M sPDZD2, 24 hrs.): 90.86 ± 1.12% | viability of the cells ([6]; 10^−7M sPDZD2, 48 hrs.): 95.45 ± 0.56% | viability of the cells ([6]; 10^−8M sPDZD2, 24 hrs.): 95.03 ± 1.00% | viability of the cells ([6]; 10^−8M sPDZD2, 48 hrs.): 95.49 ± 0.79% | changes in cell viability (in words) ([6]; sPDZD2, 24 and 48 hours): No changes | decrease in cell proliferation ([7]; 10^−7 M sPDZD2, 24 hours): 22.6% | decrease in cell proliferation ([7]; 10^−7 M sPDZD2, 48 hours): 41.6% | decrease in cell proliferation ([7]; 10^−8M sPDZD2, 24 hours): 13.5% | decrease in cell proliferation ([7]; 10^−8 M sPDZD2, 48 hours): 23.8% | effect on cell proliferation (in words) [7, 14]: concentration-dependent inhibition | effect on the increase in cell proliferation induced by caspase-3 inhibitor treatment [7, 15]: abolished | decrease in cell proliferation ([8]; 10^−7 M sPDZD2, 24 hours): 15.4% | decrease in cell proliferation ([8]; 10^−7 M sPDZD2, 48 hours): 27.7% | decrease in cell proliferation ([8]; 10^−8 M sPDZD2, 24 hours): 12.7% | effect on cell proliferation (in words) [8, 14]: concentration-dependent inhibition | effect on the increase in cell proliferation induced by caspase-3 inhibitor treatment [8, 15]: abolished | decrease in cell proliferation ([8]; sPDZD2, 48 hours): 21.7% | tumor volumes compared with saline-treated group ([9]; high dose 8.4 mg once daily intraperitoneal for 58 days, at 39, 46, 53, 60 and 67 days after tumor cell implantation): significant decreases | tumor volumes compared with saline-treated group ([9]; low dose 0.084 mg once daily intraperitoneal for 58 days): No significant differences | absorbance at 405 nm (mono- and oligo-nucleosomes in the cell cytoplasm, apoptosis) ([10]; 10^−7 M sPDZD2, 24 hours): Significant (P<0.001) increases | absorbance at 405 nm (mono- and oligo-nucleosomes in the cell cytoplasm, apoptosis) ([10]; sPDZD2, 24 hours): Significant (P<0.001) increases | decrease in cell viability ([11]; 10^−7 M sPDZD2, 24 hours): 26.2% | decrease in cell viability ([11]; 10^−7 M sPDZD2, 48 hours): 18.6% | decrease in cell viability ([11]; 10^−8M sPDZD2, 48 hours): 14.7% | decrease in cell proliferation ([12]; 10^−7 M sPDZD2, 24 hours): 29.9% | decrease in cell proliferation ([12]; 10^−7 M sPDZD2, 48 hours): 43.5% | decrease in cell proliferation ([12]; 10^−8 M sPDZD2, 24 hours): 25.8% | decrease in cell proliferation ([12]; 10^−8 M sPDZD2, 48 hours): 38.6% | effect on cell proliferation (in words) [12, 14]: concentration-dependent inhibition | effect on the increase in cell proliferation induced by caspase-3 inhibitor treatment [12, 15]: abolished | decrease in cell proliferation ([13]; 10^−7 M sPDZD2 (first-named of '10^−7 M and 10^−7 M'), 24 hours): 14.5% | decrease in cell proliferation ([13]; 10^−7 M sPDZD2 (second-named), 24 hours): 23.2% | decrease in cell proliferation ([13]; 10^−7 M sPDZD2, 48 hours): 21.4% | effect on cell proliferation (in words) [13, 14]: concentration-dependent inhibition | decrease in cell proliferation ([13]; 1108 M sPDZD2, 48 hours): 13.7% | effect on the increase in cell proliferation induced by caspase-3 inhibitor treatment [13, 15]: abolished
